B1: full-length human αE-catenin (natural protein)
chain: GMTAVHAGNINFKWDPKSLEIRTLAVERLLEPLVTQVTTLVNTNSKGPSNKKRGRSKKAHVLAASVEQATENFLEKGDKIAKESQFLKEELVAAVEDVRKQGDLMKAAAGEFADDPCSSVKRGNMVRAARALLSAVTRLLILADMADVYKLLVQLKVVEDGILKLRNAGNEQDLGIQYKALKPEVDKLNIMAAKRQQELKDVGHRDQMAAARGILQKNVPILYTASQACLQHPDVAAYKANRDLIYKQLQQAVTGISNAAQATASDDASQHQGGGGGELAYALNNFDKQIIVDPLSFSEERFRPSLEERLESIISGAALMADSSCTRDDRRERIVAECNAVRQALQDLLSEYMGNAGRKERSDALNSAIDKMTKKTRDLRRQLRKAVMDHVSDSFLETNVPLLVLIEAAKNGNEKEVKEYAQVFREHANKLIEVANLACSISNNEEGVKLVRMSASQLEALCPQVINAALALAAKPQSKLAQENMDLFKEQWEKQVRVLTDAVDDITSIDDFLAVSENHILEDVNKCVIALQEKDVDGLDRTAGAIRGRAARVIHVVTSEMDNYEPGVYTEKVLEATKLLSNTVMPRFTEQVEAAVEALSSDPAQPMDENEFIDASRLVYDGIRDIRKAVLMIRTPEELDDSDFETEDFDVRSRTSVQTEDDQLIAGQSARAIMAQLPQEQKAKIAEQVASFQEEKSKLDAEVSKWDDSGNDIIVLAKQMCMIMMEMTDFTRGKGPLKNTSDVISAAKKIAEAGSRMDKLGRTIADHCPDSACKQDLLAYLQRIALYCHQLNICSKVKAEVQNLGGELVVSGVDSAMSLIQAAKNLMNAVVQTVKASYVASTKYQKSQGMASLNLPAVSWKMKAPEKKPLVKREKQDETQTKIKRASQKKHVNPVQALSEFKAMDSI
B2: entire cytoplasmic domain of human E-cadherin (EcadCT; residues 731 to 882) (domain or fragment)
chain: not shown
B3: full-length human β-catenin (natural protein)
chain: GMATQADLMELDMAMEPDRKAAVSHWQQQSYLDSGIHSGATTTAPSLSGKGNPEEEDVDTSQVLYEWEQGFSQSFTQEQVADIDGQYAMTRAQRVRAAMFPETLDEGMQIPSTQFDAAHPTNVQRLAEPSQMLKHAVVNLINYQDDAELATRAIPELTKLLNDEDQVVVNKAAVMVHQLSKKEASRHAIMRSPQMVSAIVRTMQNTNDVETARCTAGTLHNLSHHREGLLAIFKSGGIPALVKMLGSPVDSVLFYAITTLHNLLLHQEGAKMAVRLAGGLQKMVALLNKTNVKFLAITTDCLQILAYGNQESKLIILASGGPQALVNIMRTYTYEKLLWTTSRVLKVLSVCSSNKPAIVEAGGMQALGLHLTDPSQRLVQNCLWTLRNLSDAATKQEGMEGLLGTLVQLLGSDDINVVTCAAGILSNLTCNNYKNKMMVCQVGGIEALVRTVLRAGDREDITEPAICALRHLTSRHQEAEMAQNAVRLHYGLPVVVKLLHPPSHWPLIKATVGLIRNLALCPANHAPLREQGAIPRLVQLLVRAHQDTQRRTSMGGTQQQFVEGVRMEEIVEGCTGALHILARDVHNRIVIRGLNTIPLFVQLLYSPIENIQRVAAGVLCELAQDKEAAEAIEAEGATAPLTELLHSRNEGVATYAAAVLFRMSEDKPQDYKKRLSVELTSSLFRTEPMAWNETADLGLDIGAQGEPLGYRQDDPSYRSFHSGGYGQDALGMDPMMEHEMGGHHPGADYPVDGLPDLGHAQDLMDGLPPGDSNQLAWFDTDL
B4: complex of the β-catenin truncation mutant that lacks the N-terminal 107 residues with EcadCT (B_(N-107)E) (complex)
chain 1: QIPSTQFDAAHPTNVQRLAEPSQMLKHAVVNLINYQDDAELATRAIPELTKLLNDEDQVVVNKAAVMVHQLSKKEASRHAIMRSPQMVSAIVRTMQNTNDVETARCTAGTLHNLSHHREGLLAIFKSGGIPALVKMLGSPVDSVLFYAITTLHNLLLHQEGAKMAVRLAGGLQKMVALLNKTNVKFLAITTDCLQILAYGNQESKLIILASGGPQALVNIMRTYTYEKLLWTTSRVLKVLSVCSSNKPAIVEAGGMQALGLHLTDPSQRLVQNCLWTLRNLSDAATKQEGMEGLLGTLVQLLGSDDINVVTCAAGILSNLTCNNYKNKMMVCQVGGIEALVRTVLRAGDREDITEPAICALRHLTSRHQEAEMAQNAVRLHYGLPVVVKLLHPPSHWPLIKATVGLIRNLALCPANHAPLREQGAIPRLVQLLVRAHQDTQRRTSMGGTQQQFVEGVRMEEIVEGCTGALHILARDVHNRIVIRGLNTIPLFVQLLYSPIENIQRVAAGVLCELAQDKEAAEAIEAEGATAPLTELLHSRNEGVATYAAAVLFRMSEDKPQDYKKRLSVELTSSLFRTEPMAWNETADLGLDIGAQGEPLGYRQDDPSYRSFHSGGYGQDALGMDPMMEHEMGGHHPGADYPVDGLPDLGHAQDLMDGLPPGDSNQLAWFDTDL
chain 2: not shown

Key:
[1] = molecular target: β-catenin•epithelial cadherin cytoplasmic domain complex (BE) (human, UniProt P35222;P12830); assay: SPR
[2] = molecular target: B3; assay: SPR
[3] = molecular target: B1; assay: contrast variation small-angle neutron scattering
[4] = molecular target: B1; assay: SPR

B1
Kd [1]: 119 ± 6.3 nM | koff [1]: 0.0004 s⁻¹

B2
Kd [2]: 104 ± 3.2 nM

B3
binding result [3]: binds

B4
Kd [4]: 12600 ± 758 nM | koff [4]: 0.002 s⁻¹

From publication PMC6815173 (Proceedings of the National Academy of Sciences of the …, 2019)
